# Laboratory results from the RNAGym collection of RNA variant scans (doi:10.1073/pnas.2313332121).
# B1: TPR t1 (parent)
# chain: GACCAAUCUGCCCUCAGAGCUCGAGAACAUCUUCGGAUGCAGAGGAGGCAGGCUUCGGUGGCGCGAUAGCGCCAACGUCCUCAACCUCCAAUGCAUCCCACCACAUGAUGAUGCCUGAAGAGCCUUGGUUUUUUG
# Variants of: B1
# Assay: polymerase ribozyme fitness, log enrichment relative to wild type (log ratio); higher = more active; in vitro selection for triplet polymerase activity
# How it was run: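 Streptavidin-bead capture of gel-excised extended constructs, followed by RT-PCR, closed a single triplicate in vitro selection round. That round began by annealing PCR-built, transcribed mutant libraries of each subunit of a heterodimeric triplet polymerase ribozyme with a biotinylated primer, the partner subunit and triplets, then incubating them frozen at −7 °C. After Illumina sequencing of inputs and outputs, genotypes needed ≥10 input reads and ≥1 read per output. Fitness is the base-2 logarithm of genotype enrichment over wild-type enrichment, using inverse-variance-weighted replicate averages.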
row,Variant,polymerase ribozyme fitness (log ratio)
1,GACCAAUCUGCCCUCAUAGCUCGAGAACAUCUUCGGAUGCAGAGUAGGCAGGCUUCGGUGUCGCGAUAGCGCCAACGUCCACAACCUCCAAUGCAUCCCACCACAUGAUGAUGCCUGAAGAGCCUUGGUUUUUUG,-3.74
2,GACCAAUCUGCCCUCAUAGCUCGAGAACAUCUUCGGAUGCAGAGGAAGCAGGCUUCGGUGGCGCGAUAGCCCCAACGUCCUCAACCUCCAAUGCAUCCCACCACAUGAUGAUGCCUGAAGAGCCUUGGUUUUUUG,-3.03
3,GACCAAUCUGCCCUCAUAGCUCGAGAACAUCUUCGGAUGCAGAGGAAGCAGGCUUCGGUGGCGCGAUAGCUCCAACGUCCUCAACCUCCAAUGCAUCCCACCACAUGAUGAUGCCUGAAGAGCCUUGGUUUUUUG,-3.24
4,GACCAAUCUGCCCUCAUAGCUCGAGAACAUCUUCGGAUGCAGAGGAGACUGGCUUCGGUAGCGCGAUAGCGCCAACGUCCUCAACCUCCAAUGCAUCCCACCACAUGAUGAUGCCUGAAGAGCCUUGGUUUUUUG,-3.1
5,GACCAAUCUGCCCUCAUAGCUCGAGAACAUCUUCGGAUGCAGAGGAGUCAGGCUUCGGUGGCGCGAUAGUGCCAACGCCCUCAACCGCCAAUGCAUCCCACCACAUGAUGAAGCCUGAAGAGCCUUGGUUUUUUG,-4.19
6,GACCAAUCUGCCCUCAUAGCUCGAGAACAUCUUCGGAUGCAGAGGAGGCAGCCUUCGGUGGCGCGAUAGCGCCUACUUCCUCAACCUCCAAUGCAUCCCACCACAUGAUGAUGCCUGAAGAGUCUUGGUUUUUUG,-2.34
7,GACCAAUCUGCCCUCAUAGCUCGAGAACAUCUUCGGAUGCAGAGGAGGCAGUCUUCGGUGGAGCGAUAGUGCCAACGUCCUCAACCUCCAAUGCAUCCCACCACAUGAUGAUGCCUGAAGAGCCUUGGUUUUUUG,-4.32
8,GACCAAUCUGCCCUCAUAGCUCGAGAACAUCUUCGGAUGCAGAGGAGGCAGGCUUCGGUGGCGCGAUAGCACCAACGUCCUCAACCUCCAAUGCAUCCCACCACAUGAUGAUGCCUGAAGAGCCUUGGUUUUUUG,-3.25
9,GACCAAUCUGCCCUCAUAGCUCGAGAACAUCUUCGGAUGCAGAGGAGGCAGGCUUCGGUGGCGCGAUAGCGCCAACGUCCUCAACCUCCAAUGCAUCCCACCACAUGAUGAUGCCUGAAGAGCCUUGGUUUUUUU,-3.6
10,GACCAAUCUGCCCUCAUAGCACGAGAACAUCUUCGGAUGCAGAGGAGGCAGGCUUCGGUGGGGCGAUAGCGCCACCGUCCUCAACCUCCAAUGCAUCCCACCACAUGAUGAUGCCUGAAGAGCUUUGGUUUUUUG,-4.5
11,GACCAAUCUGCCCUCAUAGCUCGAGAACAUCUUCGGAAGCAGAGGAGGCAGGCUUCGGUGUCGCGAUAGCGCCAACGUCCUCAACCUCCAAUGCAUCCCACCACAUGAUGAUGCCUGAAGAGCCAUGGUUUUUUG,-3.94
12,GACCAAUCUGCCCUCAUAGCUCGAGAACAUCUUCGGAUGCAGAGGAGGCAGGCUACGGUGGCGCGAUAGCGCCAACGUCCUCAACCUCCAAUGCAUCCCACCACAUGAUGAUGCCUGAAGAGCCUUGGUUUUUUG,-2.43
13,GACCAAUCUGCCCUCAUAGCUCGAGAACAUCUUCGGAUGCAGAGGAGGCAGGCUACGGUGGCGCGAUAGCGCCAACCUCCUCAACGUCCAAUGCAUCCCACCACAUGAUGAUGCCUGAAGAGCUUUGGUUUUUUG,-3.47
14,GACCAAUCUGCCCUCAUAGCUCGAGAACAUCUUCGGAUGCAGAGGAGGCAGGCUUCGGUGGCGCGAUAGCGCCAACGACCUCAACCUCCAAUGCAUCCCACCACAUGAUGAUGCCUGAAGAGCCUUGGUUUUUUG,-2.93
15,GACCAAUCUGCCCUCAUAGCUCGAGAACAUCUUCGGAUGCAGAGGAGGCAGGCUUCGGUGGCGCGAUAGCGCCAACGAGCUCAACCUCCAAUGCAUCCCACCACAUGAUGAUGCUUGAAGAGCCUUGGUUUUUUG,-6.15
16,GACCAAUCUGCCCUCAGCGCUCGAGAGCAUCUUCGGAUGCAGUUGAGGCAGGCUUCGGUGACGCGAUAGCGCCAACGUCCUCAACCUCCAAUGCAUCCCACCACAUGAUGAUGCCUGAAGAGCCUUGGUUUUUUG,-4.83
17,GACCAAUCUGCCCUCAGCGCUCGAGAACGUCUUCGGAUGCAGAGGAGGCAGGCUUCGGUGACGCGAUAGCGCCAACGUCCUCAACCUCCAAUGCAUCCCACCACAUGAUGAUGCCUGAAGAGCCUUGGUUUUUUG,-2.27
18,GACCAAUCUGCCCUCAGCGCUCGAGAACAUCUUCGGCUGCAGAGGAGGCAGGCUUCGGUGGCGCGAUAGCGCCAACGUCCUCAACCUCCAAUGCAUCCCACCACAUGAUGACGCCUGAAGAGCCUUGGUUUUUUG,-1.3
19,GACCAAUCUGCCCUCAGCGCUCGAGAACAUCUUCGGAUGCGGAGGAGGCAGGCUUCGGUGGCGCGAUAGCGCCAACGUCCUCAACCUCCAAUGCAUCCCAGCACAUGAUGAUGCCUGAAGAGCCUUGGUUUUUUG,-5.9
20,GACCAAUCUGCCCUCAGCGCUCGAGAACAUCUUCGGAUGCAGGGGAGGCAGGCUUCGGUGGCGCGAUAGCGCCAACGUCCUCAAGCUCCAAUGCAGCCCACCACAUGAUGAUGCCUGAAGAGCCUUGGUUUUUUG,-4.07
21,GACCAAUCUGCCCUCAGCGCUCGAGAACAUCUUCGGAUGCAGGGGACGCAGGCCUCGGUGGCGCGAUAGCGCCAACGUCCUCAACCUCCAAUGCAUCCCACCACAUGAUGAUGUCUGAAGAGCCUAGGUUUUUUG,-5.87

row,Variant,polymerase ribozyme fitness (log ratio)
1,GACCAAUCUGCCCUCAGCGCUCGAGAACAUCUUCGGAUGCAGAGGAGGCCGGCUUCGGUAGCGCGAUAGCGCCAACGUCCUCAGCCUCCAAAGCAUCCCACCACAUGAUGAUGCCUGAAGAGCCUUGGUUUUUUG,-6.2
2,GACCAAUCUGCCCUCAGCGCUCGAGAACAUCUUCGGAUGCAGAGGAGGCAGGCUUCGGUGGCGCGAUAGCGCCAACGUCCUCCACCUCCAGUGCAUCCCACCACAUGAUGCUGCCUGAAGAGCCUUGGUUUUUUG,-3.03
3,GACCAAUCUGCCCUCAGCGCUCGAGAACAUCUUCGGAUGCAGAGGAGGCAGGCUUCGGUGGCGCGAUAGCGCCAACGUCCUCAACCUCCAUUGCAUCCCACCACAUGAUGAUGCCUGAAGAGCCUUGGUUUUUUG,-1.86
4,GACCAAUCUGCCCUCAGCGCUCGAGAACAUCUUCGGAUGCAGAGGAGGCAGGCUUCGGUGGCGCGAUAGCGCCAACGUCCUCAACCUCCAAUGCAUCCCACCACAUGAUGAUGCCUGUAGAGCCUUGGUUUUUUG,-0.81
5,GACCAAUCUGCCCUCAGCGUUCGAGAACAUCUUCGGAUGCAGAGGAGGCAGGCUUCGGUGGCGCGAUAGCGCCAACGUCCUCAACCUCCAAUGCAUCCCACCACAUGAUGAUGCCUGAAGAGCCUUGGUUUUUUG,-1.33
6,GACCAAUCUGCCCUCAGCGUUCGAGAACAUCUUCGGAUGCAGAGGAGGCAGGCUUCGGUGGCGCGAUAGCGCCAACGUCCUCACCCUCCAAUGCACCCCACCACAUGAUGAUGCCUUAAGAGCCUUAGUUUUUUG,-5.53
7,GACCAAUCUGCCCUCAGCGCUCGAGAACAUCUUCGGAUGUGGAGGAGGCAGGCUUGGGUGGCGCGAUAGCGCCAACGUCCUCAACCUCCAAUGCAUCCCACCACAUGAUGAUGCCUGAAGAGCCUUGGUUUUUUG,-3.24
8,GACCAAUCUGCCCUCAGCGCUCGAGAACAUCUUCGGAUGCAGAGGAGGAAGGCUUCGGUGGCGCGAUAGCGCCAACGGCCUCAACCUCCAAUGCAUCCCACCACAUGAUGAUGUCUGAAGAGCCUUGGUUUUUUG,-4.02
9,GACCAAUCUGCCCUCAGCGCUCGAGAACAUCUUCGGAUGCAGAGGAGGCAGGCUUGGGUGGCGCGAUAGCGCCAACGUCCUCAACCUCCAAUGCAUCCCACCACAUGAUGAUGCCUGAAGAGCCUUGGUUUUUUG,-2.15
10,GACCAAUCUGCCCUCAGCGCUCGAGAACAUCUUCGGAUGCAGAGGAGGCAGGCUUGGGAGGCGCGAUAGCGCCAACGUCCUCAACCUCCAAUGCAUCCCUCCACAUGAUGGUGCCUGAAGAGCCUUCGUUUUUUG,-3.88
11,GACCAAUCUGCCCUCAGCGCUCGAGAACAUCUUCGGAUGCAGAGGAGGCAGGCUUCGGUGGCGCGAUAGCGUCAACGUCCUCAACCUCCAAGGCAUCCCACCACAUGAUGAUGCCUGAAGGGCCUUGGUUUUUUG,-0.934
12,GACCAAUCUGCCCUCAGCGCUCGAGAACAUCUUCGGAUGCAGAGGAGGCAGGCUUCGGUGGCGCGAUAGCGCCAACGUGCUCAACCUCCUAUGCAUCCCACCACAUGAUGAUACCUGAAGAGCCUUGGUUUUUUG,-4.1
13,GACCAAUCUGCCCUCAGCGCUCGAGAACAUCUUCGGAUGCAGAGGAGGCAGGCUUCGGUGGCGCGAUAGCGCCAACGUCCUCAACCUUCGAUGCAUCCCACCACAUGAUGAUGGCUGAAGAGCCUUGGUUUUUUG,-0.417
14,GACCAAUCUGCCCUCAGCGCUCGAGAACAUCUUCGGAUGCAGAGGAGGCAGGCUUCGGUGGCGCGAUAGCGCCAACGUCCUCAACCUUCAAUGCGUCCCACCACAUGAUGAUGCCUGAAGAGCCUUGGUUUUUUG,-2.41
15,GACCAAUCUGCCCUCAGCGCUCGAGAACAUCUUCGGAUGCAGAGGAGGCAGGCUUCGGUGGCGCGAUAGCGCCAACGUCCUCAACCUCCAAUGCAUCCCACCAUAUGAUGAUGCCUGAAGAGGCUUGGUUUUUUG,0.269
16,GACCAAUCUGCCCUCAGCGCUCGAGAACAUCUUCGGAUGCAGAGGAGGCAGGCUUCGGUGGCGCGAUAGCGCCAACGUCCUCAACCUCCAAUGCAUCCCACCACAUGAUGAUGCGUGAGGAGCCUUGGUUUUUUG,1.41
17,GACCAAUCUGCCCUCAGCGCUCGAGAACAUCUUCGGAUCCUGAGGAGGCAGGCUUCGGUGGCGCGAUAGCGCCAACGUCCUCAACCUCCAAUGCAUCCCACCACAUGAUGAUGCCUGAAGAGUCUUGGUUUUUUG,-2.25
18,GACCAAUCUGCCCUCAGCGCUCGAGAACAUCUUCGGAUCCUGAGGAGGCAGGCUUCGGUCGCGCGAUAGCGCCAACGUCCUCAACCUCCAAUGCAUCCCACCACAUGAUGAUGCCUGAAGAGUCUUGGUUUUUUG,-4.26
19,GACCAAUCUGCCCUCAGCGCUCGAGAACAUCUUCGGAUUCAGAGGAGGUAGGCUUCGGUGGCGCGAUAGCGCCAACGUCCUCAACCUCCAAUGCAUCCCACCACAUGAUGAUGCCUGAACAGCCUUGGUUUUUUG,-4.35
20,GACCAAUCUGCCCUCAGCGCUCGAGAACAUCUUCGGAUGCAAAUGAGGCAGGGUUCGGUGGCGCGAUAGCGCCAACGUCCUCAACCUCCAAUACAUCCCACCACAUGAUGAUGCCUGAAGAGCCUUGGUUUUUUG,-4.64
21,GACCAAUCUGCCCUCAGCGCUCGAGAACAUCUUCGGAUGCAUAGGAGGCAGGCUUCGGUGGCGCGAUACCGCCAACGUCCUCAACCUCCAAUGCAUCCCACCACAUGAUGAUGCCUGAAGAGCCUUGGUUUUUUG,-3.2
